13 molecules from patent publication US20190233519A1 (NANJING LEGEND BIOTECH, published 2019) can be followed below.

Test [1] has as its target T1, human PD-1 expressed on CHO cells (human, UniProt Q15116 25-288).
T1 construct: whole, on cells; Also used here for PD-1 on primary T cells (MLR) and on reporter Jurkat cells in the functional rows; also called CHO cells expressing human PD-1
Description: FACS on CHO cells expressing human PD-1.
Description: (§1) CHO cells expressing human PD-1 were dissociated from adherent culture flasks and mixed with varying concentrations of antibodies (both in a 96-well plate). […] Human IgG was used as a negative binding control. The mixture was equilibrated for 30 minutes at room temperature, washed three times with FACS buffer (PBS containing 1% BSA). FITC-conjugated anti-human kappa antibody (Jackson ImmunoResearch) used as secondary antibody was then added and incubated for 15 minutes at room temperature. Cells were washed again with FACS buffer and analyzed by flow cytometry. Data were analyzed with Prism (GraphPad Software, San Diego, Calif.) using non-linear regression, and EC₅₀ values were calculated.
BABP samples were prepared (starting at 1 μM, 3-fold serial dilution with 10 concentrations) as primary antibodies for FACS analysis.

Test [2] deals with T2, human CTLA-4 expressed on CHO cells (human, UniProt P16410 37-223).
T2 construct: also called CHO cells expressing human CTLA-4; CTLA-4 expressing CHO cells
Description: FACS on CHO cells expressing human CTLA-4.
Description: (§2) Binding of HCAbs to human CTLA-4 expressed on CHO cells was determined using a fluorescence-activated cell sorting (FACS)-based assay. CHO cells expressing human CTLA-4 were dissociated from adherent culture flasks and mixed with varying concentrations of antibodies (in a 96-well plate). […] The mixture was equilibrated for 30 minutes at room temperature, then washed three times with FACS buffer (PBS containing 1% BSA). Fluorescein isothiocyanate (FITC)-conjugated anti-human κ antibody (Jackson ImmunoResearch) was then added and incubated for 15 minutes at room temperature, serving as a secondary antibody. Cells were washed again with FACS buffer and analyzed by flow cytometry. Data were analyzed with Prism (GraphPad Software, San Diego, Calif.) using non-linear regression, and EC₅₀ values were calculated.
BABP samples were prepared (starting at 1 μM, 3-fold serial dilution with 10 concentrations) as primary antibody for FACS analysis.

The target of another test is T3, PD-1-His protein (UniProt Q15116 25-167, limits assumed).
T3 construct: not shown: His tag
Description: SPR, antibody captured by Fc, PD-1-His as analyte. (In general: In SPR one partner is held on a chip, and binding of the other changes the refractive index at the surface.)

In test [3] the target is T4, CTLA-4-His protein (Homo sapiens (Human), UniProt P16410 37-161).
T4 construct: also called CTLA-4-His fusion protein; not shown: His tag
Kind of test: SPR, antibody captured by Fc, CTLA-4-His as analyte.

Test [4] deals with T1, human PD-1 expressed on CHO cells. Kind of test: FACS competition, biotin hPD-L1-Fc on CHO cells expressing human PD-1.
Description: The mixture was equilibrated for 30 minutes at room temperature, and washed three times with FACS buffer (PBS containing 1% BSA). PE/Cy5 Streptavidin secondary antibody was then added to the mixtures and incubated for 15 minutes at room temperature. Subsequently, the cells were washed with FACS buffer and analyzed by flow cytometry.
The target of test [5] is T5, biotin-labeled hCTLA-4/Fc protein (human, UniProt P16410 37-161, biotin label in the FACS competition assays (sites not given)).
T5 construct: also called CTLA-4 ECD (CTLA-4-Fc); CTLA-4-Fc (GenScript, Z03373-50)
Kind of test: FACS competition, biotin hCTLA-4-Fc on CHO cells expressing human B7-1.

Test [6] has as its target T1, human PD-1 expressed on CHO cells. Kind of test: FACS on CHO cells expressing human PD-1. This is another data set of the same source.
Description: as §1
Test [7] concerns the target T2, human CTLA-4 expressed on CHO cells. Kind of test: FACS on CHO cells expressing human CTLA-4. This is another data set of the same source.
Description: as §2
Test [8] concerns the target T4, CTLA-4-His protein. Description: SPR, antibody immobilised, CTLA-4-His as analyte.
Test [9] deals with T4, CTLA-4-His protein. Description: SPR, CTLA-4-His immobilised, HCAb as analyte at 5-160 nM.
Description: Binding kinetics of anti-CTLA-4 HCAbs were determined using a Surface Plasmon Resonance (SPR) biosensor, Biacore T200 (GE Healthcare). Antigen CTLA-4-His fusion protein was immobilized on the sensor chip. […] The data of dissociation (kd) and association (kₐ) rate constants were obtained using Biacore T200 evaluation software. The apparent equilibrium dissociation constants (KD) were calculated from the ratio of kd/kₐ.

T2 sequence (P16410 37-223): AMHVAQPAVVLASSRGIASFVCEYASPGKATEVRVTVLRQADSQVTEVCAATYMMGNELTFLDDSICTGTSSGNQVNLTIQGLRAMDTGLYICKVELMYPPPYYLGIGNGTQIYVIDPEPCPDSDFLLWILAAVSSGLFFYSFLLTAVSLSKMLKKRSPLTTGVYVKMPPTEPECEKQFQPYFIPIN
T1 sequence (Q15116 25-288): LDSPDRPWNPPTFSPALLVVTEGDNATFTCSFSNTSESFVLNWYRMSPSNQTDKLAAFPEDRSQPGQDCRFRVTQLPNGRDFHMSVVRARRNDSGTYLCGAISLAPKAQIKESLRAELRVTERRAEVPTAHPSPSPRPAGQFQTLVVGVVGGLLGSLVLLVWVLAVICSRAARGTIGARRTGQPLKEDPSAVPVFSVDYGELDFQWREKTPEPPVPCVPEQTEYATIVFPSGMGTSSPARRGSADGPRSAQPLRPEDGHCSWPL
T4 sequence (P16410 37-161 limits assumed): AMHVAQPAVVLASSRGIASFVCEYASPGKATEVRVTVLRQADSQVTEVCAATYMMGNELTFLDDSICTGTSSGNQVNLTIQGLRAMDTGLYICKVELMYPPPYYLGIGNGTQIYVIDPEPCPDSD
T5 sequence (P16410 37-161): as the sequence (P16410 37-161 limits assumed) above
T3 sequence (Q15116 25-167 limits assumed): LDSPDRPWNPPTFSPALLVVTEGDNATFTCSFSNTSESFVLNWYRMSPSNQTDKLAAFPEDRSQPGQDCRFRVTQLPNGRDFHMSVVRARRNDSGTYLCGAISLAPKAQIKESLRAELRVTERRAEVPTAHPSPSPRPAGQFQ
Description for PD-1-His protein: Different concentrations of the BABP samples were prepared starting at 50 nM with 3-fold serial dilution. Each BABP sample was immobilized on the sensor chip through the Fc capture method. Antigen PD-1-His was used as the analyte. The dissociation (kd) and association (kₐ) rate constants were obtained using the BIACORE® T200 evaluation software. The apparent equilibrium dissociation constants (KD) were calculated from the ratio of kd over kₐ.

B1: BCP-36 (Keytruda-scFv-hIgG1 hinge-A34311-CH1-IgG1 Fc, A34311-CL as light chain fusion polypeptide) (bispecific antibody)
heavy: not shown
light: QVKLEESGGGLVLPGESLRLSCEASGRTITTITMGWFRQAPGKERQFVASHSWTDNNPYYADSVKGRFIISRDNAGNRVYLQMHSLEPEDTAVYYCAATARRSFVGRQWYTEARQYDYWGQGTQVTVSSRTVAAPSVFIFPPSDEQLKSGTASVVCLLNNFYPREAKVQWKVDNALQSGNSQESVTEQDSKDSTYSLSSTLTLSKADYEKHKVYACEVTHQGLSSPVTKSFNRGEC
For B1, the EC50 in test [1] was determined as 1.8 nM; in [2], 26.4 nM. The Kd came out at 8.3 nM with PD-1-His protein and 6.1 nM with CTLA-4-His protein [3]. The results for the IC50 in test [4] and in test [5] were 2 nM and 17.9 nM, respectively.

B2: BCP-2 (BCP-K311) (Keytruda-9GS-A34311) (bispecific antibody, human IgG4 S228P, kappa)
heavy: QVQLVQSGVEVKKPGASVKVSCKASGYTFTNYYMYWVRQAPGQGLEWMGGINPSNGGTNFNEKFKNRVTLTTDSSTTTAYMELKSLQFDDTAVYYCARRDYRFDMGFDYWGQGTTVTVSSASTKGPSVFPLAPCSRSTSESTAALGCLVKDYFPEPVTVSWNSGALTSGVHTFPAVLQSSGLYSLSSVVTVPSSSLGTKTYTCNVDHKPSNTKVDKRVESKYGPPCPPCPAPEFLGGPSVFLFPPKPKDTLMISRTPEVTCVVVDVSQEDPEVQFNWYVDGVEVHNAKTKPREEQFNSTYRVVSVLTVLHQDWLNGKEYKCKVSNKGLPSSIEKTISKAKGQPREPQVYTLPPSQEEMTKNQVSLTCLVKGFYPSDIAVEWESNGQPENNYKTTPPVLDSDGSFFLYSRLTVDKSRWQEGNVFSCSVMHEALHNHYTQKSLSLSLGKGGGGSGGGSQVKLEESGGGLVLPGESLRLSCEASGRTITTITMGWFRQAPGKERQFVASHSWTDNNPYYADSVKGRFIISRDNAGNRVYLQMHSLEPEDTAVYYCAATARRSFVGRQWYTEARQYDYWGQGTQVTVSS
light: EIVLTQSPATLSLSPGERATLSCRASKGVSTSGYSYLHWYQQKPGQAPRLLIYLASYLESGVPARFSGSGSGTDFTLTISSLEPEDFAVYYCQHSRDLPLTFGGGTKVEIKRTVAAPSVFIFPPSDEQLKSGTASVVCLLNNFYPREAKVQWKVDNALQSGNSQESVTEQDSKDSTYSLSSTLTLSKADYEKHKVYACEVTHQGLSSPVTKSFNRGEC
For the molecule B2, the EC50 in test [1] stood at 5.2 nM; in [2], 16.4 nM. The Kd was 5.3 nM with PD-1-His protein and 11 nM with CTLA-4-His protein [3]. Further, the IC50 in test [4] turned out to be 2.3 nM; in test [5], 11.7 nM.

B3: BCP-74 (AS07014VH11-mutated hIgG1 hinge-Keytruda) (bispecific antibody)
heavy: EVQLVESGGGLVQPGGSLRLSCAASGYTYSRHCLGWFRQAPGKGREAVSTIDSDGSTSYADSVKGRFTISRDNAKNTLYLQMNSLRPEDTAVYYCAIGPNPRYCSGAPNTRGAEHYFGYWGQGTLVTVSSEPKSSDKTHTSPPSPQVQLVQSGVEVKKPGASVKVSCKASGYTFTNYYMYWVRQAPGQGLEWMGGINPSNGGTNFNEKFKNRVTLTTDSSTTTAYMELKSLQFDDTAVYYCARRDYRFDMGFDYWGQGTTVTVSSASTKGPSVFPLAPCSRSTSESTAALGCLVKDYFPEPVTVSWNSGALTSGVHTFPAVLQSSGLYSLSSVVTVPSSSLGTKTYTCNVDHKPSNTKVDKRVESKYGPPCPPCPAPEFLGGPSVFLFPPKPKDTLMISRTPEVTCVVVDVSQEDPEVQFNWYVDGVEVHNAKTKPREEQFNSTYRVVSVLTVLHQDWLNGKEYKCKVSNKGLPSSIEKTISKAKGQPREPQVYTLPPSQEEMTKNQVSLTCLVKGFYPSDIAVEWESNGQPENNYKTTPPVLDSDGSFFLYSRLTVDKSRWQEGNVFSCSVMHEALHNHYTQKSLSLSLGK
light: EIVLTQSPATLSLSPGERATLSCRASKGVSTSGYSYLHWYQQKPGQAPRLLIYLASYLESGVPARFSGSGSGTDFTLTISSLEPEDFAVYYCQHSRDLPLTFGGGTKVEIKRTVAAPSVFIFPPSDEQLKSGTASVVCLLNNFYPREAKVQWKVDNALQSGNSQESVTEQDSKDSTYSLSSTLTLSKADYEKHKVYACEVTHQGLSSPVTKSFNRGEC
Take B3: the binding result (in [6]; in test [7]; with CTLA-4-His protein [8]) was “binds” in each case.

B4: BCP-73 (A34311VH11-mutated hIgG1 hinge-Keytruda) (bispecific antibody)
heavy: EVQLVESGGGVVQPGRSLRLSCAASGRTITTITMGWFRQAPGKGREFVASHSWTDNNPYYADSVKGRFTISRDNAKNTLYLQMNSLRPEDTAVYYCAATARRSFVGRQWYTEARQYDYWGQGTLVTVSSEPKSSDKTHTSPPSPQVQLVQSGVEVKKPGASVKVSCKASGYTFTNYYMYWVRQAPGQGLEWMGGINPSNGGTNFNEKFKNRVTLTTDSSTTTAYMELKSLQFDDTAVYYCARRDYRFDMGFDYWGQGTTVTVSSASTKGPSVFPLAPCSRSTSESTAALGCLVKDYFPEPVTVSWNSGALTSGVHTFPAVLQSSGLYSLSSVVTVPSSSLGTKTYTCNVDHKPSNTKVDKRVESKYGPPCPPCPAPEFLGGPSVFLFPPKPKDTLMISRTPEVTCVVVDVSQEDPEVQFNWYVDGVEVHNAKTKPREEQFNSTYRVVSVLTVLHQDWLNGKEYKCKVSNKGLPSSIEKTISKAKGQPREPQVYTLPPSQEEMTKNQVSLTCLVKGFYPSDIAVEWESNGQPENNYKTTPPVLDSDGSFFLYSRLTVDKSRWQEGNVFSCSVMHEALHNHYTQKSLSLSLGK
light: EIVLTQSPATLSLSPGERATLSCRASKGVSTSGYSYLHWYQQKPGQAPRLLIYLASYLESGVPARFSGSGSGTDFTLTISSLEPEDFAVYYCQHSRDLPLTFGGGTKVEIKRTVAAPSVFIFPPSDEQLKSGTASVVCLLNNFYPREAKVQWKVDNALQSGNSQESVTEQDSKDSTYSLSSTLTLSKADYEKHKVYACEVTHQGLSSPVTKSFNRGEC
Turning to B4, the binding result (in [6]; in [7]; with CTLA-4-His protein [8]) was “binds” in each case.

B5: BCP-33 (Keytruda-Fab VH-CH1-hIgG1 hinge-A34311-IgG1 Fc) (bispecific antibody)
heavy: not shown
light: EIVLTQSPATLSLSPGERATLSCRASKGVSTSGYSYLHWYQQKPGQAPRLLIYLASYLESGVPARFSGSGSGTDFTLTISSLEPEDFAVYYCQHSRDLPLTFGGGTKVEIKRTVAAPSVFIFPPSDEQLKSGTASVVCLLNNFYPREAKVQWKVDNALQSGNSQESVTEQDSKDSTYSLSSTLTLSKADYEKHKVYACEVTHQGLSSPVTKSFNRGEC
Take B5: the results for the EC50 in [1] and in [2] were 1.5 nM and 48 nM, respectively. The Kd with PD-1-His protein was found to be 8.1 nM; with CTLA-4-His protein [3] it was 9.2 nM. Moreover, the IC50 worked out at 2 nM in test [4] and 26.3 nM in [5].

B6: BCP-32 (A34311-9GS linker-A34311-9GS linker-Keytruda) (bispecific antibody, human IgG4 S228P, kappa)
heavy: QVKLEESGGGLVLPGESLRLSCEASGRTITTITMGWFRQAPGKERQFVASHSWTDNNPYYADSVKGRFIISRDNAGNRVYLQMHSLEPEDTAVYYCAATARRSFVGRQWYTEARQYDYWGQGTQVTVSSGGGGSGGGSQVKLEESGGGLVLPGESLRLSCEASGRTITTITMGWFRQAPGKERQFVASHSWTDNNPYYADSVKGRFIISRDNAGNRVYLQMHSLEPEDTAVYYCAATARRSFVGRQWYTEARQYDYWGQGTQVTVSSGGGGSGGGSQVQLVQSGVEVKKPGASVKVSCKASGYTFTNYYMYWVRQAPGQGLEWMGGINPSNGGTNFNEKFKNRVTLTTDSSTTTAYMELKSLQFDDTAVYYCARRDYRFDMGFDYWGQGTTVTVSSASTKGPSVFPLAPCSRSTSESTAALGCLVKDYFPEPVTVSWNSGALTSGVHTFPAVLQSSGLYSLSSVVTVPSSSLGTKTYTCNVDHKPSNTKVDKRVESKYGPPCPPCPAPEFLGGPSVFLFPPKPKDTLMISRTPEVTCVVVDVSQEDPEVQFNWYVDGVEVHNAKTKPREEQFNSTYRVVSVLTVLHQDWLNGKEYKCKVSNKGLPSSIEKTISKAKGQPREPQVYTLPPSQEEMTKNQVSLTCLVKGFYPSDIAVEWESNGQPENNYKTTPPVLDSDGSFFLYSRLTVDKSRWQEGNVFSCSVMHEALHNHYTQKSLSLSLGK
light: EIVLTQSPATLSLSPGERATLSCRASKGVSTSGYSYLHWYQQKPGQAPRLLIYLASYLESGVPARFSGSGSGTDFTLTISSLEPEDFAVYYCQHSRDLPLTFGGGTKVEIKRTVAAPSVFIFPPSDEQLKSGTASVVCLLNNFYPREAKVQWKVDNALQSGNSQESVTEQDSKDSTYSLSSTLTLSKADYEKHKVYACEVTHQGLSSPVTKSFNRGEC
Take B6: the EC50 turned out to be 8.1 nM in test [1] and 71.7 nM in test [2]. Further, the values for the Kd with PD-1-His protein and with CTLA-4-His protein [3] were 7.5 nM and 4.1 nM, respectively. Further, the IC50 came out at 4.3 nM in test [4] and 14.6 nM in test [5].

B7: BCP-75 (AS07189TKDVH11-mutated hIgG1 hinge-Keytruda) (bispecific antibody)
heavy: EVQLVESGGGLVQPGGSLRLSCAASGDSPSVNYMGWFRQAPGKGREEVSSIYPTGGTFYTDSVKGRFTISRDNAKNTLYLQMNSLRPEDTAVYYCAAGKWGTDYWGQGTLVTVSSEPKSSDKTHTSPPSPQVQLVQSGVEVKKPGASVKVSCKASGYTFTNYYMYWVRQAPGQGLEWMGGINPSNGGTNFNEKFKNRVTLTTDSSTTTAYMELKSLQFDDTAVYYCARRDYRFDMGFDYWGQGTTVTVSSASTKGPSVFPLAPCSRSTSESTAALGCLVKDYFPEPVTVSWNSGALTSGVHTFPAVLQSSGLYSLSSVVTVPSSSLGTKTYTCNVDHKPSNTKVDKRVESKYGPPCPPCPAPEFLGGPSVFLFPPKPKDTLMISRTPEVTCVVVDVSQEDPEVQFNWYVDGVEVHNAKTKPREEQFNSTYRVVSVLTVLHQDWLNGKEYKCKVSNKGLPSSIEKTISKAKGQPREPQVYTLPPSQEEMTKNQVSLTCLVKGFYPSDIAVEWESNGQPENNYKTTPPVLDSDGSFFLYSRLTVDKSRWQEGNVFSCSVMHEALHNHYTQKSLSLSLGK
light: EIVLTQSPATLSLSPGERATLSCRASKGVSTSGYSYLHWYQQKPGQAPRLLIYLASYLESGVPARFSGSGSGTDFTLTISSLEPEDFAVYYCQHSRDLPLTFGGGTKVEIKRTVAAPSVFIFPPSDEQLKSGTASVVCLLNNFYPREAKVQWKVDNALQSGNSQESVTEQDSKDSTYSLSSTLTLSKADYEKHKVYACEVTHQGLSSPVTKSFNRGEC
Take B7: the binding result (in [6]; in test [7]; with CTLA-4-His protein [8]) was “binds” each time.

B8: AS07189 HCAb (Fc fusion)
heavy: QVQLVESGGGSVQAGGSLRLSCAASGDSPSVNYMGWFRRAPEKQREQREEVASIYPTGGTFYTDSVKGRFTISRDNAKNTLYLQMTALKPEDTAMYYCAAGKWGTDYWGQGTQVIVSS
notes: not shown: human IgG1 Fc
Turning to B8, in the test with CTLA-4-His protein [9], the binding result is recorded as “binds”.

B9: BCP-17 (Keytruda-hIgG1 hinge-A34311) (bispecific antibody)
heavy: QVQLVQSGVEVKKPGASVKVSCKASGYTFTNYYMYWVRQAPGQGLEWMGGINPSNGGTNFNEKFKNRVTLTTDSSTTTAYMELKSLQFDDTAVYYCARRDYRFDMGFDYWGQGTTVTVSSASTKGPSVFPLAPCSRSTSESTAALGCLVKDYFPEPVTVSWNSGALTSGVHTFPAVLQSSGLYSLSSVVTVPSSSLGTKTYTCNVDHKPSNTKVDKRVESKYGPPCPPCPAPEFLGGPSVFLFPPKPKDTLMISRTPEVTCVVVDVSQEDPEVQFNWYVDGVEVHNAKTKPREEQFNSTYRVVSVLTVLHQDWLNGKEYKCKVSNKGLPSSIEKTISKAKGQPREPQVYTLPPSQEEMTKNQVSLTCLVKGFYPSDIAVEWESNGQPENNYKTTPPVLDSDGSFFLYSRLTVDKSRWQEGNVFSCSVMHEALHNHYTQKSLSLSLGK
light: EIVLTQSPATLSLSPGERATLSCRASKGVSTSGYSYLHWYQQKPGQAPRLLIYLASYLESGVPARFSGSGSGTDFTLTISSLEPEDFAVYYCQHSRDLPLTFGGGTKVEIKRTVAAPSVFIFPPSDEQLKSGTASVVCLLNNFYPREAKVQWKVDNALQSGNSQESVTEQDSKDSTYSLSSTLTLSKADYEKHKVYACEVTHQGLSSPVTKSFNRGECEPKSCDKTHTCPPCPQVKLEESGGGLVLPGESLRLSCEASGRTITTITMGWFRQAPGKERQFVASHSWTDNNPYYADSVKGRFIISRDNAGNRVYLQMHSLEPEDTAVYYCAATARRSFVGRQWYTEARQYDYWGQGTQVTVSS
Take B9: the figures for the EC50 in test [1] and in [2] were 2.7 nM and 17.7 nM, respectively. The Kd with PD-1-His protein is 3.9 nM; with CTLA-4-His protein [3], 39.3 nM. The values for the IC50 in test [4] and in [5] were 4 nM and 33.3 nM, respectively.

B10: BCP-31 (A34311-9GS linker-Keytruda) (bispecific antibody, human IgG4 S228P, kappa)
heavy: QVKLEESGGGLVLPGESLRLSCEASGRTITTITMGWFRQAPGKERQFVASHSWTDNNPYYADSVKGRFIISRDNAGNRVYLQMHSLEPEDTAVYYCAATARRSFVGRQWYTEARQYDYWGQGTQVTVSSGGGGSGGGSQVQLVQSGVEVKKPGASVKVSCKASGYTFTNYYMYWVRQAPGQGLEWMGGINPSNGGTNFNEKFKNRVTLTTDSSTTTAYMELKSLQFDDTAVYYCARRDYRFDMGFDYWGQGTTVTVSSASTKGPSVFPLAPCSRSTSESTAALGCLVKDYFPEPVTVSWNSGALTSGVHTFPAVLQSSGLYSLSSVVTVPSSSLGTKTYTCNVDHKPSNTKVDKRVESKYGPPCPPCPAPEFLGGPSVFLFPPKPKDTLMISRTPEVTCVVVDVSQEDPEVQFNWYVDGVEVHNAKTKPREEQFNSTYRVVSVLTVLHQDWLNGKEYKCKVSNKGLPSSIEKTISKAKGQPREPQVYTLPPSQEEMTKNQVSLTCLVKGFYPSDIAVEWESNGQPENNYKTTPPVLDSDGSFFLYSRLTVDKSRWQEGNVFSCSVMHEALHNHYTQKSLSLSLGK
light: QVKLEESGGGLVLPGESLRLSCEASGRTITTITMGWFRQAPGKERQFVASHSWTDNNPYYADSVKGRFIISRDNAGNRVYLQMHSLEPEDTAVYYCAATARRSFVGRQWYTEARQYDYWGQGTQVTVSSGGGGSGGGSEIVLTQSPATLSLSPGERATLSCRASKGVSTSGYSYLHWYQQKPGQAPRLLIYLASYLESGVPARFSGSGSGTDFTLTISSLEPEDFAVYYCQHSRDLPLTFGGGTKVEIKRTVAAPSVFIFPPSDEQLKSGTASVVCLLNNFYPREAKVQWKVDNALQSGNSQESVTEQDSKDSTYSLSSTLTLSKADYEKHKVYACEVTHQGLSSPVTKSFNRGEC
For the molecule B10, the EC50 in test [1] was 3.4 nM; in test [2] it was 31.2 nM. The Kd was found to be 8 nM in the test with PD-1-His protein and 4.3 nM with CTLA-4-His protein [3]. Moreover, the IC50 was found to be 5.7 nM in [4] and 15.3 nM in test [5].

B11: AS07014 HCAb (Fc fusion)
heavy: QVHLVESGGGSVQAGGSLRLSCAASGYTYSRHCLGWFRQTPGKEREAVATIDSDGSTSYADSVKGRFTISSDNAKNTLYLQMNSLKPEDTAMYYCAIGPNPRYCSGAPNTRGAEHYFGYWAQGTQVTVSS
notes: not shown: human IgG1 Fc
Regarding B11, the binding result with CTLA-4-His protein [9] was “binds”.

B12: BCP-35 (Keytruda-Fab VH-CH1-hIgG1 hinge-A34311-CH1-IgG4 Fc, Keytruda-Fab VL-CL-hIgG1 hinge-A34311-CL) (bispecific antibody)
heavy: not shown
light: EIVLTQSPATLSLSPGERATLSCRASKGVSTSGYSYLHWYQQKPGQAPRLLIYLASYLESGVPARFSGSGSGTDFTLTISSLEPEDFAVYYCQHSRDLPLTFGGGTKVEIKRTVAAPSVFIFPPSDEQLKSGTASVVCLLNNFYPREAKVQWKVDNALQSGNSQESVTEQDSKDSTYSLSSTLTLSKADYEKHKVYACEVTHQGLSSPVTKSFNRGECEPKSCDKTHTCPPCPQVKLEESGGGLVLPGESLRLSCEASGRTITTITMGWFRQAPGKERQFVASHSWTDNNPYYADSVKGRFIISRDNAGNRVYLQMHSLEPEDTAVYYCAATARRSFVGRQWYTEARQYDYWGQGTQVTVSSRTVAAPSVFIFPPSDEQLKSGTASVVCLLNNFYPREAKVQWKVDNALQSGNSQESVTEQDSKDSTYSLSSTLTLSKADYEKHKVYACEVTHQGLSSPVTKSFNRGEC
Take B12: the figures for the EC50 in test [1] and in test [2] were 3 nM and 20.4 nM, respectively. For the same molecule, the Kd with PD-1-His protein came to 7.3 nM; with CTLA-4-His protein [3] it was 7.2 nM. Besides, the IC50 in [4] was found to be 4.6 nM; in test [5] it was 17.5 nM.

B13: BCP-16 (A34311-hIgG1 hinge-Keytruda) (bispecific antibody)
heavy: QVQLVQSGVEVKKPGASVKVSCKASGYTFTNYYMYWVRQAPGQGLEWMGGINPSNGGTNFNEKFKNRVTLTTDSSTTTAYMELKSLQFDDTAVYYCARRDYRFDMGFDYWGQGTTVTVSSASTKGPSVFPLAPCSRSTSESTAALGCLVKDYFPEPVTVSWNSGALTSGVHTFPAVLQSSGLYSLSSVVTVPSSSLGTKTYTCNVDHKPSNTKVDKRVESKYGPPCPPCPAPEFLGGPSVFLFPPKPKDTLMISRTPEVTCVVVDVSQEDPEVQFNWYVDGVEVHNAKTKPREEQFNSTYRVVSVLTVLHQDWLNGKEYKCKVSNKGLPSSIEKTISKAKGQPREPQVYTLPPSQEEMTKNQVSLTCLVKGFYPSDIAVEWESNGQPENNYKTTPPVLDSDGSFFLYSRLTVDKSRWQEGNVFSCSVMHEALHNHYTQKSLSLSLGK
light: QVKLEESGGGLVLPGESLRLSCEASGRTITTITMGWFRQAPGKERQFVASHSWTDNNPYYADSVKGRFIISRDNAGNRVYLQMHSLEPEDTAVYYCAATARRSFVGRQWYTEARQYDYWGQGTQVTVSSEPKSCDKTHTCPPCPEIVLTQSPATLSLSPGERATLSCRASKGVSTSGYSYLHWYQQKPGQAPRLLIYLASYLESGVPARFSGSGSGTDFTLTISSLEPEDFAVYYCQHSRDLPLTFGGGTKVEIKRTVAAPSVFIFPPSDEQLKSGTASVVCLLNNFYPREAKVQWKVDNALQSGNSQESVTEQDSKDSTYSLSSTLTLSKADYEKHKVYACEVTHQGLSSPVTKSFNRGEC
In the case of B13, the EC50 in [1] was determined as 12.2 nM; in test [2], 26.6 nM. Moreover, the Kd with PD-1-His protein was 3.9 nM; with CTLA-4-His protein [3] it was 4.8 nM. For the same molecule, the IC50 in [4] stood at 8.8 nM; in test [5] it was 8.6 nM.

The term EC50 denotes the concentration that produces a half-maximal response. A word on the Kd: it is the concentration at which binding is half-saturated. A high value points to a looser complex. The term IC50 denotes the midpoint of a concentration-inhibition curve.
